Results: PMC10153752, “Exo1 protects DNA nicks from ligation to promote crossover formation during meiosis”

Biological target: T1, exo1-D173A (Saccharomyces cerevisiae, UniProt P39875 1-702, D173A)
T1 sequence: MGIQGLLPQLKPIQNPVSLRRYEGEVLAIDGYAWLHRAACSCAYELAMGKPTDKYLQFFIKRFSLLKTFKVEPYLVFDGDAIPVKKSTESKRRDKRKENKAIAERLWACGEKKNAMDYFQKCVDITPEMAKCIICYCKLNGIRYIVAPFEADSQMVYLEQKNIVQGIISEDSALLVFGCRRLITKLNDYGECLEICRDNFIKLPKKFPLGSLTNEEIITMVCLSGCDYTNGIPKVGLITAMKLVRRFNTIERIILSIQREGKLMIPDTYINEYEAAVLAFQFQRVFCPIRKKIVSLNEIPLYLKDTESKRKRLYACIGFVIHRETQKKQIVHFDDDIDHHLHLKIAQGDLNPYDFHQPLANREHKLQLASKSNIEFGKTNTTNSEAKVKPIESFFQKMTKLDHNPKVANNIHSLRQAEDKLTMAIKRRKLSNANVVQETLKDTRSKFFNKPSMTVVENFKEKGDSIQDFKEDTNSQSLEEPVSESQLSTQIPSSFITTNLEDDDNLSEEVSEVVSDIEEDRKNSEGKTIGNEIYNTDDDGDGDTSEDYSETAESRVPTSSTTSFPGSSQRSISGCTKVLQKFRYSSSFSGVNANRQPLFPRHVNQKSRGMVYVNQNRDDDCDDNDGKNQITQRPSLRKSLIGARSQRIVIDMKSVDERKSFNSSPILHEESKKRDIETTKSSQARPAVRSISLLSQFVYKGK
Assay: filter binding; no added metal, 0.01 mM EDTA; 15 nM DNA, 35 mM NaCl, 20 mM Tris pH 7.5, 0.04 mg/ml BSA, 0.01 mM EDTA, 0.1 mM DTT, 60 ul, 10 min at 30 C; KOH-treated nitrocellulose filter binding
Conditions: protein: recombinant; tags: FLAG; label: 5'-32P on AO3144 (8% labeled); nicked duplex with 19 nt 5' flap (AO3145 1-19); last 3 nt of AO3145 mismatch the 5' end of AO3144

B1: 19 nt 5' flap substrate (AO3145 + AO3940 annealed to AO3144) (dsDNA)
DNA 1: ACAGCTACCGAATTCTGACTTGCTAGGACATCTTTGCCCACGTTGACCC
DNA 2: TCGATAGTCTCTAGATAGCATGTCCTAGCAAGTCAGAATTCGGTAGCGTG
DNA 3: GGGTCAACGTGGGCAAAG
B1: binds.
